# Measurements taken from US20040175799.
# T1: RNase A, bovine pancreas, P61823
# T1 chain: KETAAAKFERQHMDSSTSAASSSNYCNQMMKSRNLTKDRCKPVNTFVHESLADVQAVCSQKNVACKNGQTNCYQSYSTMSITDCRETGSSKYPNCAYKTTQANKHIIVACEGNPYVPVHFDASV
# T2: β-Casein, bovine milk, P02666
# T2 chain: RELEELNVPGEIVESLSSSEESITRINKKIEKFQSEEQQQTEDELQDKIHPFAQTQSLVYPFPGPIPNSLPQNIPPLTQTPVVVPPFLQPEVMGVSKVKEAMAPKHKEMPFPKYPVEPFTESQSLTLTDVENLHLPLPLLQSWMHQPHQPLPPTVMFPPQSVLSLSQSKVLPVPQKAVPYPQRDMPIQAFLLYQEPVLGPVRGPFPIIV
# T3: Ovalbumin, chichen egg, P01012
# T3 chain: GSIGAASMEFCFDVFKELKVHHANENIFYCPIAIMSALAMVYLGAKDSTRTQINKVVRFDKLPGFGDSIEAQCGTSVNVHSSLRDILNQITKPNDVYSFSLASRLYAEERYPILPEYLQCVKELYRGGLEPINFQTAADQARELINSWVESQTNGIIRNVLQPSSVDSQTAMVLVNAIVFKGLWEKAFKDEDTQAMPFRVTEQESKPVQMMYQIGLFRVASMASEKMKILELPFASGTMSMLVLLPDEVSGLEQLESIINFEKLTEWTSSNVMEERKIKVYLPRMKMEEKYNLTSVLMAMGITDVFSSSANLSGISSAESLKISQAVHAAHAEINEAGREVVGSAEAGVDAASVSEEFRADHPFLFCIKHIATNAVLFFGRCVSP
# T4: β-Lactoglobulin, bovine milk, P02754
# T4 chain: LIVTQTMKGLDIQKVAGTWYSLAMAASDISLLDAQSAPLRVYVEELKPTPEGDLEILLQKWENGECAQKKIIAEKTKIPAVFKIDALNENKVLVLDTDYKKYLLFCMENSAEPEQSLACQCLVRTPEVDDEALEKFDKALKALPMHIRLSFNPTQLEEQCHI
# T5: Myoglobin, horse skeletal muscle, P68082
# T5 chain: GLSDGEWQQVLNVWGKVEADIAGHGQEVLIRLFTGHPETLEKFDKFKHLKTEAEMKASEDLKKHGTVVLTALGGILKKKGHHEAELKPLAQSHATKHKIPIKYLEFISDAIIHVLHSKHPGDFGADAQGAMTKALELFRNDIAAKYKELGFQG
# T6: α-Lactoalbumin, bovine milk, P00711
# T6 chain: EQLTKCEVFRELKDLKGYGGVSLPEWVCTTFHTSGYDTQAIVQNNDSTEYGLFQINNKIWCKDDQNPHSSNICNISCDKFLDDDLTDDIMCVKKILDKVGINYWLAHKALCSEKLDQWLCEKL
# Experiments:
# [1] = target: Soy protein isolate
# [2] = target: Collagen, Type I, bovine Achilles tendon, P02453
# [3] = target: Gelatin, Type B, bovine skin
# [4] = target: T1, RNase A, bovine pancreas, P61823
# [5] = target: T2, β-Casein, bovine milk, P02666
# [6] = target: α-Chymotrypsinogen A, bovine pancreas, P00766
# [7] = target: albumen protein
# [8] = target: T3, Ovalbumin, chichen egg, P01012
# [9] = target: Zein, corn
# [10] = target: α-Casein, bovine milk
# [11] = target: T4, β-Lactoglobulin, bovine milk, P02754
# [12] = target: Gluten, wheat
# [13] = target: Bovine serum albumin, bovine, P02769
# [14] = target: soybean protein
# [15] = target: Actin, bovine muscle, P68138
# [16] = target: T5, Myoglobin, horse skeletal muscle, P68082
# [17] = target: Muscle acetone powder, chicken breast
# [18] = target: Aprotinin, bovine lung, P00974
# [19] = target: T6, α-Lactoalbumin, bovine milk, P00711
# [20] = target: Gliadin, what (wheat)
# [21] = target: whey protein
# [22] = target: milk caseinate
# Bovine serum albumin, bovine, P02769, sequence (P02769 25-607): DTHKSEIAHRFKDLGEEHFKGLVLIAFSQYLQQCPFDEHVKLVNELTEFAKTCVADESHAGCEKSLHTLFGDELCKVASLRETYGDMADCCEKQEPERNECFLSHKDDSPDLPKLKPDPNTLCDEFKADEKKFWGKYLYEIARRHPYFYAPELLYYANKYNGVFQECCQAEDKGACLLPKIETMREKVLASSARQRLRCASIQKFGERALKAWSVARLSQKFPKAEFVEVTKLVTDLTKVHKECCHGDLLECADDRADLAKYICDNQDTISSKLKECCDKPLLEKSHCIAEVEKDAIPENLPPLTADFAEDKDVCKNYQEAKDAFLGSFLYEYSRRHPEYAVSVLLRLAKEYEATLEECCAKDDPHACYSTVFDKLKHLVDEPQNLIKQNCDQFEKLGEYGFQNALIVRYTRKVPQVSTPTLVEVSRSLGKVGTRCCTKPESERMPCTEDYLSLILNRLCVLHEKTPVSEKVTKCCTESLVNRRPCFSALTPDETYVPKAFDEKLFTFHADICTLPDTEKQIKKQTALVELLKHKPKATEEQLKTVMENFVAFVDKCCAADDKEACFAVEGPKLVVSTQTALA
# Collagen, Type I, bovine Achilles tendon, P02453, sequence (P02453 162-1217, chain 1 of 2): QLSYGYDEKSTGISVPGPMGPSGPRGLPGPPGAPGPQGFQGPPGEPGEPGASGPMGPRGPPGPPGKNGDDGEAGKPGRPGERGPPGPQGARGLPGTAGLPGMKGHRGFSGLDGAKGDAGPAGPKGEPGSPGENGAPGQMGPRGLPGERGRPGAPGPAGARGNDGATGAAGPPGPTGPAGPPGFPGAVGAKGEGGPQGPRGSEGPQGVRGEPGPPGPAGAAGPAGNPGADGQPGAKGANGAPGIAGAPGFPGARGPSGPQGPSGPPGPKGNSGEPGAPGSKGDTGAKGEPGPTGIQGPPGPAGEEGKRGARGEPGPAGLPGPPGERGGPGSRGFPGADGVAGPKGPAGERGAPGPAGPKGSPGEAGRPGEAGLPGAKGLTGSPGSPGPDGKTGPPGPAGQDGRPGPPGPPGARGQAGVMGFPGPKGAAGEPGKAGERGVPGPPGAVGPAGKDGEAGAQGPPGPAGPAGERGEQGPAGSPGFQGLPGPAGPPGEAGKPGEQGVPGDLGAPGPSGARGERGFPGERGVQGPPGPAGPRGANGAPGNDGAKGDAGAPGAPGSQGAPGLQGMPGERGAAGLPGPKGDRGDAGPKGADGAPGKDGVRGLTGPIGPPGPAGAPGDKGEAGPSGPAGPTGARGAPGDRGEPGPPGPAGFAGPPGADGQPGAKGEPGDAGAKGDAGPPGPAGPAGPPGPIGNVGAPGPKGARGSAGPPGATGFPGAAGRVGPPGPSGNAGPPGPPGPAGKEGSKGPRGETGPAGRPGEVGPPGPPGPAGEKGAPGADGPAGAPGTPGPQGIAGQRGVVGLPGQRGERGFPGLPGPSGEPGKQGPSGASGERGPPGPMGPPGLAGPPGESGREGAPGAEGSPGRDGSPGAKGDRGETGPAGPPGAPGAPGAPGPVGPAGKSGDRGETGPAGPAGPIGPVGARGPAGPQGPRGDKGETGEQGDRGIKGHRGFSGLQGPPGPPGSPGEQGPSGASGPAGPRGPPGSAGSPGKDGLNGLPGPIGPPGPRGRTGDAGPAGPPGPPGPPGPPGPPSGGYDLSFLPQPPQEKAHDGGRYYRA
# Collagen, Type I, bovine Achilles tendon, P02453, sequence (P02453 other isoform, or with tags, fused parts or gaps, chain 2 of 2): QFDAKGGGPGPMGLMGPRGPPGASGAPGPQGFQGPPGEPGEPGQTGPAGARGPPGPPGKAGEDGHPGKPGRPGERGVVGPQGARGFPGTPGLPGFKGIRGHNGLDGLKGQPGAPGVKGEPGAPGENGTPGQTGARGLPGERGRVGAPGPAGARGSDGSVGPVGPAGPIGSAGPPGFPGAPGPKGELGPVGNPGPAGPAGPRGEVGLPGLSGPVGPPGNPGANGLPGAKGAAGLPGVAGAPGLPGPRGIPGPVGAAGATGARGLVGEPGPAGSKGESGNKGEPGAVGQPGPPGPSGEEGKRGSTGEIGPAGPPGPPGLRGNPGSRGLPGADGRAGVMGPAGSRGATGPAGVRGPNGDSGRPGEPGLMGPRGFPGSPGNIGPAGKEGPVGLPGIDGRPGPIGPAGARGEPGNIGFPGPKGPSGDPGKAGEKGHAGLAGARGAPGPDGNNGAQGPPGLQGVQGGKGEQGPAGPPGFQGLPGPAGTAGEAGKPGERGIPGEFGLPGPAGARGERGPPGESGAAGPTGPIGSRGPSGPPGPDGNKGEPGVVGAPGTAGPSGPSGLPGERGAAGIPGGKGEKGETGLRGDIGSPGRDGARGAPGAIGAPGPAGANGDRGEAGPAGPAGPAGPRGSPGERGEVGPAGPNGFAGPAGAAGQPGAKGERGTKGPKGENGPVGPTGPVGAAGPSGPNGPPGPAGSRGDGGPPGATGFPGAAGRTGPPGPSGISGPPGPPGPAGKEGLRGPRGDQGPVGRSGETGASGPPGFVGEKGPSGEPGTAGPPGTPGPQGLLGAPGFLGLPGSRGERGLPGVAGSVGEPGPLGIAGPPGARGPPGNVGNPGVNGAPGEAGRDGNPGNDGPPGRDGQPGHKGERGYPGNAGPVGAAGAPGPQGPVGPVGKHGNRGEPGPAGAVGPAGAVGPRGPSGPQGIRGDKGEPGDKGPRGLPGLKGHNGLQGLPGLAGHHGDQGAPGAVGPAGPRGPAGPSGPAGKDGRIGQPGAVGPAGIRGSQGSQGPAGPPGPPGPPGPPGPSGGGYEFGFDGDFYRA
protein,measurement,setting,value
protein-deamidating enzyme purified from Chryseobacterium sp. No. 9670 (protein) LASVIPDVATLNSLFNQIKNQSCGTSTASSPCITFRYPVDGCYARAHKMRQILMNNGYDCEKQFVYGNLKASTGTCCVAWSYHVAILVSYKNASGVTEKRIIDPSLFSSGPVTDTAWRNACVNTSCGSASVSSYANTAGNVYYRSPSNSYLYDNNLINTNCVLTKFSLLSGCSPSPAPDVSSCGF,Ammonia releasing rate,[1],1.17 µmol/min/mg
same,Ammonia releasing rate,[2],0.177 µmol/min/mg
same,Ammonia releasing rate,[3],0.696 µmol/min/mg
same,Ammonia releasing rate,[4],2.91 µmol/min/mg
same,Ammonia releasing rate,[5],18.1 µmol/min/mg
same,Ammonia releasing rate,[6],0.65 µmol/min/mg
same,deamidation ratio,[7],7% in albumen protein
same,Ammonia releasing rate,[8],0.005 µmol/min/mg
same,Ammonia releasing rate,[9],0.655 µmol/min/mg
same,Ammonia releasing rate,[10],19.1 µmol/min/mg
same,Ammonia releasing rate,[11],0.728 µmol/min/mg
same,Ammonia releasing rate,[12],7.2 µmol/min/mg
same,deamidation ratio,[12],74% in wheat gluten
same,Ammonia releasing rate,[13],0.009 µmol/min/mg
same,deamidation ratio,[14],20% in soybean protein
same,Ammonia releasing rate,[15],0.45 µmol/min/mg
same,Ammonia releasing rate,[16],0.014 µmol/min/mg
same,Ammonia releasing rate,[17],0.21 µmol/min/mg
same,Ammonia releasing rate,[18],0.224 µmol/min/mg
same,Ammonia releasing rate,[19],0.836 µmol/min/mg
same,Ammonia releasing rate,[20],5.47 µmol/min/mg
same,deamidation ratio,[21],23% in whey protein
same,deamidation ratio,[22],60% in caseinate
